Measurements reported in the domain aggregation screens of Martell et al. (2025).

Assay: soluble fraction after stress (log2 fold change); higher = more stays soluble; pooled small domains, quantitative proteomics
Conditions: stress: pH 4
Summary of the method: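 Aggregation propensity here comes from the fold change in the soluble amount of each small protein domain after acid stress, measured in pooled custom libraries by high-throughput quantitative proteomics. The acid stress was pH 4. On the log2 scale, higher values mean more of the domain stayed soluble.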

| Sequence | soluble fraction (log2) |
| --- | --- |
| HMFIQLSQEEKKVVEGLQQRSKTHLDALALEVGQNISKTAAMLMELEMKGVVRALPGKYYEL | -0.239 |
| HMDNAILQELYDYYKEDPSLSQSELIISMLTRIQEAVGYVSKDVQEEVARLAGVNRGYVAAIIKNLPHL | -0.963 |
| HMQKFINQEHEKAYNLMLEKDYQQALKIFDDLIYLFPNEANLLSDRGVIFIHLNKKEAALQDFDQAVF | -1.49 |
| HMTQEMPAEVKKKADAFNNAMDEENYTEAKAILAELEQNTAPSYPLLLQMQTRYAFETASWE | -0.974 |
| HMARDSYNGVQRTISTLLGQGNYDRAYDVAVGARGQMSKQQWSDVAKRIYEVSGIKIDDSVKY | -0.0224 |
| HMDLFLVYQFIRRLATPFTEWKAHELGIIDDKGVQLKKRRDFTTREEKDAYGIFDIMITKLKRLIEKV | -1.04 |
| HMGVDMGPAKYVGQKALTATEMRPAGKIQIGQTVFDAVSVGPFIGARKAVKVIKYENAQLYVEPE | 0.116 |
| HMKNSMANVQARREKILSAVDQSEPVAVEGLAQRFNVSITTLRRDLKALSDMGQVKWHHGLVERT | 0.164 |
| HMVFADRLRALRKKSGLTQDEFSKQTGIGRSAVGMYESGKREPNYTTLSKVARFYHVSTDYLLGRTDTP | -0.13 |
| HMGDYDHYVVKVEDTLLNWLVTNVTTMSRNKLKDILAGQGIKVNGKITTKYDYPLTPGMKIAISKTKR | -0.351 |
| HMYELDIYPNPAIDKINVLLPSSTTLPVKVEIYDIMGKKVNSLLTTKKAFTIETDQFEKGIYFVKA | 0.187 |
| HMNINHEINIKSKKKISILENNPNLSQFYLTKNPDQYNYNLVFSDKSELNKLKEKLESDNEVEDIDIRYG | -0.195 |
| HMDLSYPFTTVTTDNVNMRRSASSSSVVLERIDKGDSITVLGTSGNYYKVSYNDRTGYVLKQYVDVSAATT | -0.0312 |
| HMALTQEQLGQRLQDARKSVALTQQEVAEDLGLSRESLAQIEAGSRSVNSLEIVRLARLYGRSLSSILLE | -0.299 |
| HMVRTIKILGIKHNINLYYKNVKVPTMNVKNQTLEIILPNKYKKFQEEQILKVLTQKLYDKIAETEIEKIK | ≥ 0.43 |
| HMQGQVLQETARKARSQLDSEIPGFNDALYQNLIKSSENYGYKAEEVAQWVDPRAIKVLNDAYQFQQLKAG | -0.25 |
| HMHPEQTLEKIVDISAELFAKKGYEQTSIQDILDATGLSKGGLYHHFKSKEEILEAVMQKRVQY | -0.647 |
| HMDEPSITYGKVKVQTSLNVRQGPGTQYARIGSLGPNVRIQILGQEGQWYKIKYGNLQGYVHSDYVELEK | -0.376 |
| HMIELDRTNLLGVFGPKSRPYALLMLSNGEMIKISIGDQFFGWRVYGIDEKSIQVQNGTKQEILRIP | -1.19 |
| HMPANLTPDYFKAEQWYRSASTNEEKMLALEQMLAVMPKHKGTEHLQADLKRKLSQLKDASAQ | ≥ 0.43 |
| HMADAGQTTAATELKQAPNAGSATISQLSAGQTLQIGTRQGAWYQVKTPQGEGWVRMLSVRLQ | 0.0688 |
| HMSALTDQQQRVLELVASGLVYKEVAAALSISEPTVKYHMGNILTRLHVKNRAQAIAAARQQGLL | -0.26 |
| HMQTFGTMIAALRKEQGMTQLELAEKMGVTDKAVSKWERDLSFPDVNSLPKLAEIFHVSVDEL | 0.216 |
| HMKDPSLEHIDALAGKPFQAFPGQDHRAHITAHLNFMSTNMVRNNPSIMAAIQKNILEHISLMAQEQIQL | -0.683 |
| HMIDFDEIEILSSSKIEKIENSEYLKSSIFEKDSNQYIYRLSFENRDQLKNFKKEIEDIDQIKKIDVTY | -0.665 |
| HMNSLPFSNFMNEVEAGRVVEVKIQGNNISGVLANGKTFSTYSPNYPELVEKLSSNGVSIVATPQ | -0.0501 |

| Sequence | soluble fraction (log2) |
| --- | --- |
| HMNPNSIDEKLKLLSNREKEVAILVLKKLSYFEISEQLNITIRTVKAHTKNIYEKFNVSNRLAFLLLFN | -0.209 |
| HMDLPSSETLKVKLNLAKAYVTIEDFGAARRALDEVLSVSSLVDPDLTIQAKSLLAEIDQRS | -0.0976 |
| HMEFLDQAFLHETMRKVNQDATINLLKKVYEVPQKFIGRKVTVQYDPEDLSRVYVKDLSFPEPVTVYPV | 0.12 |
| HMVVRKHDRYYTPEHRKLLMDTYERTNKYPTKQDMSELAKIIGVLPIKILWWYTHRRRQDRRKGEESSSP | -2.23 |
| HMTPPAQQPHEGLPTDETATDAKTLVQKSRWWLEEEQRQREAGNTAYAERIRLALIQLLYRAERA | 0.0525 |
| HMDQQTKFKTALAALAASAETKDRKLTKADVKEFLEDMDLGEEQMKLVYAYLASKHIHVEGAE | -0.0463 |
| HMKHFFIIAGGKIEDAFAIEVLKGFAEKTVIAADSGMEFLRRNEIVPQVIIGDFDSVSKETLEWFQKK | 0.22 |
| HMDPTIAAIRKKLKNWTIVEVHMTREELEQAVIDGKVDVFLSSAGFYRRLVRFGARDLATAMSPAYPD | -0.151 |
| HMTSLSYINDLVTGATAQGLYRIVVPNQFMDDNMANVLRRTYGYQVQSRTSLMGTFDDYIISWAPPM | -1.59 |
| HMDAPKPDIGMSTDQIRSSLGQPGSQTRLETGGGRIYELWIYLYPDGKELQIYFDNAKVVKMEALS | -0.419 |
| HMYEGLPVTLIIDGRVIEANLAKANRDMAWLERELANSGVRSHHDVFFATLDSRGQLYYQVKN | -1.35 |
| HMRMLLKELLIQYEVKNDKSHVEVAKEVGVSLSTYYRWLNGESLHLKKRTIDRLSEVLHYDINQVVEES | 0.0267 |
| HMNMAEQGISLDSEAGKARFVSQALPLLKQLPDGVFKQRMLNQLADRVEVTADFIAQQLAQLKAA | -0.266 |
| HMDIEVEVPNLVGMSLDEAKSIIQSMGLVVGLTIEDPSAKVSDNSVTKQKPTYQTGVKLRSGDMIDIWYAG | -0.676 |
| HMDFTHFTLKQDGKFAGSSNLLHQAVIAAARLAAETGKPVTVMAHVRGGGTRKAVFNPDGTNDKIWN | -0.0338 |
| HMQEEELYPRLEEVINQHRGKGEDLIMVLHKAQNLFGYLPRRAQEMVAEGLNVSLNEVYGVITFYNFFST | -0.342 |
| HMALSSQQIKDMQSWYGTKADGIWGSKSTTAAGGRDAGAAYSLYSSNKGRYSSYTDYMSYGGG | -0.000306 |
| HMSTTHLTASVIKDKVNVRSEADSQNGAIIDKARTGERLLVTDYGNKWTGIVLPDGKRGYIMTEYLQF | 0.22 |
| HMKEKQLMTLDDDLYAFLLKHPGIIQKDIYNHFPYDIKGVIADTLYAWDKTGKIKRTKSGNSYIIYT | -0.141 |
| HMGNLPPAVINARIKVSPAGRGVFVGFDKGSTSTEAKYADAIRGYLPNIEFNKDDHESVVTVPFNFR | -0.0258 |
| HMDSTDSIIHYVRAHRSLEVKNLSFAEARFKKVVELEPNFARGWLGLGEVSILKNNFENASIYLDKALE | -0.505 |
| HMLERPLKLKSHYVSTIYEKVAVQYSEGEEKKSVMGTLIEVNQDTIVLDDRGTIIEIPFKSITRAKTVF | -0.364 |
| HMHEYSRIYQQQWWDNATGADAYHVIHSARSRAAQDPEAARALEYLEEQFRIRYGVRTEDFLGYLHD | -1.31 |
| HMFYNDLINFDVFRDSRKIGKIENINSRLPQPVFEIMYDSRIVLIPIHEDFIRKIDKVNNIIYLDIPDGLL | -1.69 |
| HMDSINGEASISRELHGTRFDQAAAILFPEFSRSRLQAWIGAGALTLDGQTARAKDKVTQGQHLVLAAAVE | -0.536 |
| HMSLTMPKLIGMHLFQAERTLNYYGFQYKVEGPDSASVVIDQYPKEGVTVDPHYPITLKIGPSA | 0.206 |

| Sequence | soluble fraction (log2) |
| --- | --- |
| HMKLRKINLIGIFGSKTAPSALVRLTNGRVLKVGLGELLDGGRVTAIGRSSLTYNKSGKSITLNMPI | ≥ 0.43 |
| HMAQDIEQLEKAVSFYTRMDPAAAALSITNLDQKTAVNILMRMKDKQASAVLESMTAERSSELIDSIARK | -0.863 |
| HMPTFAEKLHEVRKARDFTQDQLAKEMNVSRQTISHWENGRAVPDIDTIKHLSQVLDYNFLV | -0.171 |
| HMRKDEFLQTLRRALNGNVPPRVVEENVRYYDGYISDEVRKGRSEEEVIEEIGDPRLIARTIEDTT | -0.187 |
| HMYSSASKEEIDQLMKRLILNLDAKGYFWPQDKEKSLKLYLHNLFSKLPLNSSDIRFLHGLIRALSEE | -0.693 |
| HMNNGAEIGAEIRSLRKARGLTLEDLAAKIGRSVGYISQVERGISPLTIPNLKAIAEVLGVGINWFFRGEA | 0.228 |
| HMGAQINSPISGTILKYLVKNGDKITKDQPLVNIESMKMENTIKSDKEGIVNNINFKIGDSVNTADTLLTL | 0.22 |
| HMKEQYTELDWDKVQVNDKVMIKDLNQQVTILSLPDKNNALYIQMGMIKTKVKKEKLAVYNPQLA | -0.103 |
| HMFDLATVKRVAEEAGMKFTIHPVELRAAHPNTAVLTLKSKAGRILVLKAASVGGGRIRVTEIDGVPAD | 0.219 |
| HMDHAVINSEEVTIKDLSEKIGVSAAEIIKALFTEGIIKTINDKIEYEYAQYVAGMFGVELTLKL | 0.188 |
| HMIDHKVIRSFRQKRNMTLQELAQKANLSVSYLSEIELGKKQPSLETLDKLSKALNISLEGL | 0.131 |
| HMDLDIRDDIYRANIPNDYKLQQMQNNIDYDKVLTGYYNNRPEANVIANRTLQLANDVYNRD | -0.296 |
| HMSSVGELEVGNIFEGTVNSVRGGKVLLALGNGQMVLAQMDGRVNITPGSSMFFQVKSNDGETVAIRPYTG | 0.156 |
| HMKNEFRVYPNPANKEIVTFNQTQDIEVYDTLGKLVLKAKNTNTLDTKSFHSGIYFIKTGSGLTRKLVV | ≥ 0.43 |
| HMDAEEISILLEKAVLQLPEKQKMIFQLKYFEDLSYKDIQIITGGSIGGLKANYHHAVTKIEKLLS | -0.892 |
| HMSSIVLTARSGRAALAYRVKSIGVDLSKDQLDLVYKTFLGFADKKKEIIDTDIPQILKASGI | -0.265 |
| HMKIDELKAYLFQSVRVKNPHTQEYDTLKIIELNYYQDKIKAKLKNSDDDYITEMIFESIKHLQNFLG | -1.98 |
| HMDNVQLRNFAIKATEASIIYLDQEQRNFFWYNNNKKLMTVPFDENPYSAFAAYLKTDEGSEVYKAIEKKF | -0.504 |
| HMAASEAESIRILLSEGVDRVHLRKPQSAEADMRRLIEALPPELYPRLTLQDHLHLAGEYGT | -0.162 |
| HMRDLVTYVVQVNGKLRGKLEVSPSTDDNSLKTMALELENVQRALEGLSVKKVIVIPGKMVSIAAG | -0.355 |
| HMNLGAHVYWRNHRAYGDFREYEDVGGGREALALPGSTWGTKDPRVAQALFAARLTEFQEARVGR | -0.148 |
| HMVMATPHNTAKAGDIAKTVIMPGDPLRAKYIADNYLDNAVQFNVVRNIYGYTGVYRGTDISVMASGM | 0.0409 |
| HMVLGSSVAMGQKIGDSDLTWVEVPLSSAFDRFLSEPEWRGSSDLVAARLLEAGVFLTEDDVVE | 0.136 |
| HMGDLDLVTFGQRLRHLRRSRNMTLSELGERVGRAPSQLSLLENGKREPKLSLLTALAKALDVSVEEL | 0.178 |
